Source: article PMC11273545
“And” between values parts separate entries of the source, which are not always exact repeats. Equal entries are not always repeated.

Experiments:
[1] = biological target: multimeric recombinant RBD protein (SARS-CoV-2 S protein residues 331-589 linked to the trimerization region of bacteriophage T4 and six histidines) (SARS-CoV-2 (Wuhan strain) | bacteriophage T4) (UniProt P0DTC2); assay: cross-linking
[2] = biological target: multimeric recombinant RBD protein (SARS-CoV-2 S protein residues 331-589 linked to the trimerization region of bacteriophage T4 and six histidines) (SARS-CoV-2 (Wuhan strain) | bacteriophage T4) (UniProt P0DTC2); assay: SEC; Superdex 200 column (30 x 1 cm) in TBS, 0.4 mL/min; calibrated with BSA (66 and 132 kDa), carbonic anhydrase (30 kDa) and beta-amylase (200 kDa); 135 kDa fractions pooled and re-applied

In the case of “multimeric recombinant RBD protein (SARS-CoV-2 S protein residues 331-589 linked to the trimerization region of bacteriophage T4 and six histidines) (from UniProt P0DTC2 331-589)”, the stoichiometry N [1] is reported as 3 and 6 and the stoichiometry N [2] is reported as 3.
